The values below come from US20110059887A1.

The target of this test is Human IGF Receptor (Type I IGF receptor) (human) (UniProt P08069). Description: microtiter plate antibody capture competition assay with IGF Type I receptor.
Human IGF Receptor (Type I IGF receptor) (human), sequence (P08069 31-1367 limits assumed): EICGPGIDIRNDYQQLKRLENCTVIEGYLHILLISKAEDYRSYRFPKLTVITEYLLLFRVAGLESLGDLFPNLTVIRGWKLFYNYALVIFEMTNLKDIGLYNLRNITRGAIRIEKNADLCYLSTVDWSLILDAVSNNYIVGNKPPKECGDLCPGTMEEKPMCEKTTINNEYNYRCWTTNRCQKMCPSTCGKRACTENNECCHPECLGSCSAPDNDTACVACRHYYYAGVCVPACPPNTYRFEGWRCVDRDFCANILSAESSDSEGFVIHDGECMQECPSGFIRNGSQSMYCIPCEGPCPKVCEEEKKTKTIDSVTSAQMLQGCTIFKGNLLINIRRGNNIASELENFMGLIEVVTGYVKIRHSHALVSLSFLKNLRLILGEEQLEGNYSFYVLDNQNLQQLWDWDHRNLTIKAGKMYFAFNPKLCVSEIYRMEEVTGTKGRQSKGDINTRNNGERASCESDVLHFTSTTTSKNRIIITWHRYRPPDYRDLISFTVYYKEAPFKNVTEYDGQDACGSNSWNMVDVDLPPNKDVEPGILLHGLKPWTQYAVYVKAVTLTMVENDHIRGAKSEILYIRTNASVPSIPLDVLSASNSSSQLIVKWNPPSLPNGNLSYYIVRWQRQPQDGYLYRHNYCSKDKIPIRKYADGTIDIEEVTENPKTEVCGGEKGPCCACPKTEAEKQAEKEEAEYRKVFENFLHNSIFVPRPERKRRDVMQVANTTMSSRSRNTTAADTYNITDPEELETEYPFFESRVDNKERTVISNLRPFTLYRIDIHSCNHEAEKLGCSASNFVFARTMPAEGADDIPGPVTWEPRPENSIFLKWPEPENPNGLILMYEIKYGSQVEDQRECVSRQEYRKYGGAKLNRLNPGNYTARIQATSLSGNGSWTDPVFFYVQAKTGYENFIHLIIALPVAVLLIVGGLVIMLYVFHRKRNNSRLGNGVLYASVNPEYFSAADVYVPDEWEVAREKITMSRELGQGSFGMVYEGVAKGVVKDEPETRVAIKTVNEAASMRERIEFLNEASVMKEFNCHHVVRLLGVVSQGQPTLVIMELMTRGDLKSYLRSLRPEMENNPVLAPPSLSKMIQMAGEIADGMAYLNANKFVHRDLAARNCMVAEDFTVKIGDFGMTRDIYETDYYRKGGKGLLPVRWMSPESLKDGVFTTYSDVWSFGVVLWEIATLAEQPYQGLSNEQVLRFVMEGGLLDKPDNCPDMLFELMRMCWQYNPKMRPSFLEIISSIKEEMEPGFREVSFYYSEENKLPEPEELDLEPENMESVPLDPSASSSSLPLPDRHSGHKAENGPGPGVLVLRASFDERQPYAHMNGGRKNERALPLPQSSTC

For the substance “KP-insulin (SEQ. ID. NOS. 2 & 4) (ligand; other documents disagree on this pair)”, the Affinity for IGFR (compared to that of human insulin) came to 90.
